Test [1] deals with T1, c-erbB-2 ECD with a Ser-Gly-His6 C-terminal fusion (UniProt P04626 23-652).
T1 construct: extracellular domain; expressed from CHO cells, IMAC purified; coupled to a CM5 chip, adsorbed to polystyrene, or biotinylated and captured on avidin; also called c-erbB-2 extracellular domain; biotinylated c-erbB-2 ECD
The test is described as follows: from SPR (BIAcore) Kd values. Background: SPR reads the build-up and loss of mass on a sensor chip optically.

Test [2] addresses T1, c-erbB-2 ECD with a Ser-Gly-His6 …. The test is described as follows: competition ELISA: sFv preincubated with soluble ECD (0-100 nM), free sFv read on immobilized ECD. A general note: ELISA stands for enzyme-linked immunosorbent assay.
Test [3] deals with T2, c-erbB-2 expressed on cells (SK-OV-3, SK-BR-3) (UniProt P04626 23-1255, limits assumed).
T2 construct: whole, on cells; also called native c-erbB-2 expressed on cells
The test is described as follows: Scatchard after radioiodination, SK-OV-3 cells.

In test [4] the target is T1, c-erbB-2 ECD with a Ser-Gly-His6 …. The test is described as follows: SPR (BIAcore).
For test [5] the target is unchanged. The test is described as follows: SPR (BIAcore). The source holds these as a separate data set.
In test [6] the target is T2, c-erbB-2 expressed on cells (SK-OV-3, …). The test is described as follows: FACS, biotinylated sFv on SK-OV-3 cells. Background: Flow cytometry measures light scatter and fluorescence of single cells or particles in a stream.
In test [7] the target is T1, c-erbB-2 ECD with a Ser-Gly-His6 …. The test is described as follows: SPR (BIAcore); clone eluted with 1 µM c-erbB-2 ECD.
The target of test [8] is c-erbB-2 ECD with a Ser-Gly-His6 C-terminal fusion (UniProt P04626). The test is described as follows: SPR (BIAcore).
Test [9] has the same target. The test is described as follows: from SPR (BIAcore) Kd values.

Where a chain is given by its changes, count along the chain named.

In general, IC50 refers to the concentration that gives 50% inhibition. A lower IC50 goes with greater potency in that assay. Broadly, the Kd is the equilibrium constant for the complex coming apart. A low value points to higher affinity. By kon is commonly meant the second-order rate constant of association. A lower kon goes with slow association. For orientation: koff means a measure of how fast the partners let go of each other.

B1: C6-12L1 (scFv)
chain: QVQLLQSGAELKKPGESLKISCKGSGYSFTSYWIAWVRQMPGKGLEYMGLIYPGDSDTKYSPSFQGQVTISVDKSVSTAYLQWSSLKPSDSAVYFCARHDVGYCSSSNCAKWPEYFQHWGQGTLVTVSSGGGGSGGGGSGGGGSQSVLTQPPSVSGAPGQWVTISCSGSSSNIGNNYVSWYQQLPGTAPKLLIYDNNKRPSGVPDRFSGSQSGTSASLAISGLRSEDEADYYCAAWDYSRSGWVFGGGTKLTVLG
B1 showed a ΔΔGI in test [1] of -0.18 kcal/mol.

B2: C6VLF (scFv)
chain: QVQLLQSGAELKKPGESLKISCKGSGYSFTSYWIAWVRQMPGKGLEYMGLIYPGDSDTKYSPSFQGQVTISVDKSVSTAYLQWSSLKPSDSAVYFCARHDVGYCSSSNCAKWPEYFQHWGQGTLVTVSSGGGGSGGGGSGGGGSQSVLTQPPSMSAAPGQKVTISCSGSSSNIGNNYVSWYQQFPGTAPKLLIHDNNKRPSGIPDRISGSKSGTSASLAISGLQSDDEADYYCAAWDDSLNGWVFGGGTKLTVLG
In [2], B2 showed an IC50 of 7.5 nM. In addition, the Kd in test [3] is 79 nM.

B3: C6VLD (scFv)
chain: QVQLLQSGAELKKPGESLKISCKGSGYSFTSYWIAWVRQMPGKGLEYMGLIYPGDSDTKYSPSFQGQVTISVDKSVSTAYLQWSSLKPSDSAVYFCARHDVGYCSSSNCAKWPEYFQHWGQGTLVTVSSGGGGSGGGGSGGGGSQSVLTQPPSVSAAPGQKVTISCSGTNSNIGNNYVSWYQQLPGTAPKLLIYTNDQRPSGVPDRFSGSKSGTSASLAISGLQSEDEADYYCAAWDDSLNGWMFGGGTKLTVLG
With B3, the IC50 in test [2] was 5.8 nM. In test [3], the Kd came to 26 nM.

B4: C6ML3-9 (scFv)
scFv: QVQLLQSGAELKKPGESLKISCKGSGYSFTSYWIAWVRQMPGKGLEYMGLIYPGDSDTKYSPSFQGQVTISVDKSVSTAYLQWSSLKPSDSAVYFCARHDVGYCSSSNCAKWPEYFQHWGQGTLVTVSSGGGGSGGGGSGGGGSQSVLTQPPSVSAAPGQKVTISCSGSSSNIGNNYVSWYQQLPGTAPKLLIYGHTNRPAGVPDRFSGSKSGTSASLAISGFRSEDEADYYCASWDYTLSGWVFGGGTKLTVLG
notes: C6.5 with this VL CDR3; C-terminal myc and His6 tags; parent of the VH CDR3 libraries; also called C6ML3-9 (wt); wt C6ML3-9
Consider B4, for which the “fold increase in affinity vs wild-type sFv (C6.5)” value in [4] amounted to 16 fold. The molecule also yielded a kon in [5] of 610000 M⁻¹ s⁻¹. The “half life (t1/2) on the cell surface” value in test [6] stood at 11 min.

B5: C6-B1D5 (scFv)
chain: B4 scFv with S105T, S106D, S107R, N108T, Y115W, F116M, H118M
Turning to B5, in [1], the ΔΔGI is -0.4 kcal/mol.

B6: C6-B1D3 (scFv)
chain: B4 scFv with S105T, S106D, S107R, N108T, Y115W, F116L, Q117D, H118N
On to B6, for which, in [4], the “fold lower Kd than wt C6.5” value was 1230 fold. Also, the ΔΔGI in [1] was -0.53 kcal/mol.

B7: C6-9L1 (scFv)
chain: B1 chain with A235S, S239T, R240L
In the case of B7, in [1], the ΔΔGI was found to be 0.42 kcal/mol.

B8: C6-B1D1 (scFv)
chain: B4 scFv with S105T, S106D, S107R, N108T, Y115W, F116L, Q117H, H118V
In test [1], B8 gave a ΔΔGI of -0.61 kcal/mol.

B9: C6-B1D2 (scFv)
chain: B4 scFv with S105T, S106D, S107R, N108T, Y115W, F116L, Q117G, H118V
In test [1], B9 had a ΔΔGI of -0.07 kcal/mol.

B10: C6MH3-B1 (scFv)
scFv: B4 scFv with S105T, S106D, S107R, N108T
notes: C6ML3-9 with this VH CDR3; C-terminal His6; also called C6MNH3-B1
As to B10, the “half life (t1/2) on the cell surface” value in test [6] was found to be 102 min.

B11: C6-B47D6 (scFv)
scFv: B4 scFv with S105T, S106D, S107R, N108S, Y115W, F116M, Q117Y, H118P
notes: C6MH3-B47 with the library D residues of C6MH3-D6
As for B11, in test [1], the ΔΔGI stood at 0.17 kcal/mol.

B12: C6ML3-7 (scFv)
scFv: B4 scFv with S235A, T239A, L240V
notes: C6.5 with this VL CDR3; C-terminal myc and His6 tags
Regarding B12, the “fold increase in affinity vs wild-type sFv (C6.5)” value in test [4] stood at 6 fold. In test [5], this molecule came in with a kon of 650000 M⁻¹ s⁻¹.

B13: C6-B47D5 (scFv)
scFv: B4 scFv with S105T, S106D, S107R, N108S, Y115W, F116M, H118M
notes: C6MH3-B47 with the library D residues of C6MH3-D5
The molecule B13 displayed a ΔΔGI in test [1] of -0.01 kcal/mol.

B14: C6ML3-5 (scFv)
scFv: B4 scFv with S235A, T239S
notes: as for B12
Consider B14, for which the koff in test [7] stood at 0.0019 s⁻¹. This molecule had a kon in test [5] of 590000 M⁻¹ s⁻¹.

B15: C6VLE (scFv)
chain: QVQLLQSGAELKKPGESLKISCKGSGYSFTSYWIAWVRQMPGKGLEYMGLIYPGDSDTKYSPSFQGQVTISVDKSVSTAYLQWSSLKPSDSAVYFCARHDVGYCSSSNCAKWPEYFQHWGQGTLVTVSSGGGGSGGGGSGGGGSQSVLTQPPSVSAAAGQKVTISCSGSSSSIGRNYVSWNQQLPGTAPKLLIWRNNQRPSGVPDRFSGSKSGTSASLAISGVRSEDEADYYCASWDNSLSGWVFGGGTKLTVLG
In test [2], B15 yielded an IC50 of 2.8 nM. The molecule further registered a Kd in [3] of 71 nM.

B16: C6-B1L1 (scFv, part only; not given: linker and VL, part only)
scFv, part: QVQLLQSGAELKKPGSLKISCKGSGYSFTSWIAWVRQMPGKGLEYGLIYPGDSDTKYSPSQGQVTISVDKSVSTALQWSSLKPSDSAVYFARHDVGYCHDVGYCTDRTCAKWPYFQHTVS
Take B16: in test [8], the Kd is 0.63 nM, the Kd (C6.5)/Kd (mut) amounted to 25, the Kd (parent)/Kd (mut) came to 0.19 and the koff stood at 0.00024 s⁻¹. The same molecule returned a kon in test [8] of 380000 M⁻¹ s⁻¹. Also, the ΔΔGI in test [9] stood at 0.43 kcal/mol.

B17: C6-B47L1 (scFv, part only; not given: linker and VL, part only)
scFv, part: B16 scFv, part with T108S
Take B17: in test [8], the Kd stood at 0.6 nM, the Kd (C6.5)/Kd (mut) came to 27, the Kd (parent)/Kd (mut) worked out at 0.18 and the koff amounted to 0.00018 s⁻¹. In test [8], this molecule displayed a kon of 300000 M⁻¹ s⁻¹. For the same molecule, the ΔΔGI in test [9] stood at 0.45 kcal/mol.

The values are drawn from patent US20060287509A1 (University of California, published 2006).
